Assay results from IntAct's records for PubMed 19571008.

B1: Non-homologous end-joining protein 1 (Saccharomyces cerevisiae), Q06148 (parent)
chain: MDSELKGQQLSDAEWCVKKINGEGNCLLLFLPMSSPTTIVMIVLVSLERLVPYVFKLSQTQLSQQCQSQGFTDSISLNLIKLKLMDILQAPQEINQIGLVDSNLVFSFDVSADITVSINSVPSHVTKDMFYMILQSLCMLLLKLVNLSTQYHYVQRDILNEKQKCLDFLLISLRDLDGGSKVISQWAPENSKNYESLQQCTDDDIIKKLLHKGKFQHQEFLADSLKTLLSLRNKFQDVSRFEESGELNKKERVRFPAVNHFYNDDFELQADPTNEARPNSRGKIKPKTDFKPKSRESSTSSQLRLENFSESEATPEKTKSSSSLVEEYPQKKRKFGKVRIKN

Variants of: B1
Conditions: with srs2_yeast SRS2, P12954
Sequence of srs2_yeast SRS2, P12954 (P12954 whole entry): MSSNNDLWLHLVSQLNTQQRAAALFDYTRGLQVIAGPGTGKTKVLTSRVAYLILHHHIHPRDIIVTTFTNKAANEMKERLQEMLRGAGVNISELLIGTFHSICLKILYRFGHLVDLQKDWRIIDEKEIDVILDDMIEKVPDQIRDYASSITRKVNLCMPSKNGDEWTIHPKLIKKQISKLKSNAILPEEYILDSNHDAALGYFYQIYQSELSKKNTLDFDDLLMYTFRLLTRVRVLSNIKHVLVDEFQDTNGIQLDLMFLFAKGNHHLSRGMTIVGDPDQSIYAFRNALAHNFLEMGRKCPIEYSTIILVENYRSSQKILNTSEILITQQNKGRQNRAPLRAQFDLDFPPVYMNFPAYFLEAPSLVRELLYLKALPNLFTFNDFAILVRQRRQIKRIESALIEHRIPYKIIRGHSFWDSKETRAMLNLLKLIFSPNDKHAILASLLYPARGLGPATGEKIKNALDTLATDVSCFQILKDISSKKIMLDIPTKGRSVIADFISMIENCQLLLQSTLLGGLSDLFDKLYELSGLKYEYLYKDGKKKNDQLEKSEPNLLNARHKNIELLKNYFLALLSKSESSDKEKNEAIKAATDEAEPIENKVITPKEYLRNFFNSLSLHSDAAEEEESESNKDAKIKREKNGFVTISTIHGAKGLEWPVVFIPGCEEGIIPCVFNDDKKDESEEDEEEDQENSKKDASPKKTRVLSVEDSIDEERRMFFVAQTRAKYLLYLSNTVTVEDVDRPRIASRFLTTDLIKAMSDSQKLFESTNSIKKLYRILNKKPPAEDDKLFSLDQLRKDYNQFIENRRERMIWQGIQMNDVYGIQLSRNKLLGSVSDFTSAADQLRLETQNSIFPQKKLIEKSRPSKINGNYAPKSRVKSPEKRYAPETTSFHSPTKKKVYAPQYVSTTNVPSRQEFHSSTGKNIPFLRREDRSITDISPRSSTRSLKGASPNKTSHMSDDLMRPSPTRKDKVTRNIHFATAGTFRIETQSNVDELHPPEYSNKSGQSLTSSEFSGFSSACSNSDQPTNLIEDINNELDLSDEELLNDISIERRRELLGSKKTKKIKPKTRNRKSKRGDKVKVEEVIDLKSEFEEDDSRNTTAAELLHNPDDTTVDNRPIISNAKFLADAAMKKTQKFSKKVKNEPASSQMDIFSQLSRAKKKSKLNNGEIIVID

Row | Variant | effect of a mutation on the interaction
1 | S297A | disrupting interaction
2 | S297A;S298A | disrupting interaction
3 | S298A | disrupting interaction
